Data published in patent publication US10428140B2, “Anti-EphA4 antibody” (EISAI R&D MANAGEMENT CO., LTD., priority 2015, dated 2019).
Substitutions are numbered along the chain they refer to.

T1: human EphA8 (Homo sapiens, UniProt P29322)
T1 construct: a protein of the extracellular region of each human Eph receptor fused with the SEAP protein and the His tag; made in house; host or cells: Expi293F cells (culture supernatant)
T1 sequence (P29322 28-542 limits assumed): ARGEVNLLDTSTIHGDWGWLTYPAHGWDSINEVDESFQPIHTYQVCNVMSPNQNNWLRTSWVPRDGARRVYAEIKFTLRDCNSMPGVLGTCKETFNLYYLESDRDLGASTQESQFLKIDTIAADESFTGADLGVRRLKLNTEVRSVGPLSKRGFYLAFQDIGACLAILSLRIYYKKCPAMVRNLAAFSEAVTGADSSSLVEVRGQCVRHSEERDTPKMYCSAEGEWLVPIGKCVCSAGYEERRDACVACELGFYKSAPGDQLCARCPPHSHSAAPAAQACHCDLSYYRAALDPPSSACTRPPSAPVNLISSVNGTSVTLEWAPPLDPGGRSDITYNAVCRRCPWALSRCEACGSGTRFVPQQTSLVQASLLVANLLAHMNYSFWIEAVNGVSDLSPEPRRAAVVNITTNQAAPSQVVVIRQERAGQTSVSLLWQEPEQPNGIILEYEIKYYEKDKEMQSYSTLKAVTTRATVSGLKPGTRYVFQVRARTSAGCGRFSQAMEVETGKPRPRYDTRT

T2: human EphB1 (Homo sapiens, UniProt P54762)
T2 construct: a protein of the extracellular region of each human Eph receptor fused with the SEAP protein and the His tag; made in house; host or cells: Expi293F cells (culture supernatant)
T2 sequence (P54762 18-540 limits assumed): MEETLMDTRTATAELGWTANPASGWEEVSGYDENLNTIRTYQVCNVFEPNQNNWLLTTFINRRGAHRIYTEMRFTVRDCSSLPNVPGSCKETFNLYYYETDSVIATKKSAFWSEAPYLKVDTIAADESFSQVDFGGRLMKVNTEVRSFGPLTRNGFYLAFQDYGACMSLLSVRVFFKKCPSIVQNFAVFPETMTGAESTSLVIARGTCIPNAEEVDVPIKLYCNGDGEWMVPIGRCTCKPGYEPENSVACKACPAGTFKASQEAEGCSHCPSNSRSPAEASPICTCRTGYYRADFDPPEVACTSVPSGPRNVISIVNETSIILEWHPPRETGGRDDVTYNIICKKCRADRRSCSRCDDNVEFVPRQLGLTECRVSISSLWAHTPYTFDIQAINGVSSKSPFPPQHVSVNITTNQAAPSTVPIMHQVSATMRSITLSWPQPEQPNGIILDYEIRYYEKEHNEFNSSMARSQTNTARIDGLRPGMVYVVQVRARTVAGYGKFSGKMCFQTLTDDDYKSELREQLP

B1: 95 (antibody, V domains shown)
VL: EIVMTQSPATLSVSPGERATLSCRASENIYRNLAWYQQKPGQSPRLLIYAATNLADGIPARFSGSGSGTEYTLTISSLQSEDFAVYYCQHFWGTPWTFGQGTKVEIK
VH: QVQLVQSGSELKKPGASVKVSCKASGYTFTDYSMHWVRQAPGQGLEWMGWINTETGEPTYADDFKGRFVFSLDTSVSTAYLQISSLKAEDTAVYYCARIPLYYYGSRYWYFDVWGQGTTVTVSS
modifications: constant regions without entry; synthetic humanized antibody light chain variable region sequence; synthetic humanized antibody heavy chain variable region sequence
B2: 73 (antibody, V domains shown)
VH: B1 VH with V2I, E46K
VL: B1 VL
modifications: synthetic humanized antibody heavy chain variable region sequence; synthetic humanized antibody light chain variable region sequence
B3: 143 (antibody, V domains shown)
VH: B1 VH with V2I, E46K
VL: DIQMTQSPSSLSASVGDRVTITCRASENIYRNLAWYQQKPGKAPKLLVYAATNLADGVPSRFSGSGSGTDYTLTISSLQPEDFATYYCQHFWGTPWTFGQGTKVEIK
modifications: synthetic humanized antibody heavy chain variable region sequence; synthetic humanized antibody light chain variable region sequence
B4: 140 (antibody, V domains shown)
VH: B1 VH with E46K, D62Q, D63G, K65T
VL: B3 VL
modifications: synthetic humanized antibody heavy chain variable region sequence; synthetic humanized antibody light chain variable region sequence
B5: 142 (antibody, V domains shown)
VH: B1 VH with E46K
VL: B3 VL
modifications: synthetic humanized antibody heavy chain variable region sequence; synthetic humanized antibody light chain variable region sequence
B6: 96 (antibody, V domains shown)
VL: B1 VL
VH: B1 VH with E46K
modifications: constant regions without entry; synthetic humanized antibody light chain variable region sequence; synthetic humanized antibody heavy chain variable region sequence
B7: 141 (antibody, V domains shown)
VH: B1 VH
VL: B3 VL
modifications: synthetic humanized antibody heavy chain variable region sequence; synthetic humanized antibody light chain variable region sequence
B8: 139 (antibody)
VH: B1 VH with D62Q, D63G, K65T
VL: B3 VL
chain: ASTKGPSVFPLAPSSRSTSESTAALGCLVKDYFPEPVTVSWNSGALTSGVHTFPAVLQSSGLYSLSSVVTVPSSNFGTQTYTCNVDHKPSNTKVDKTVERKSCVECPPCPAPPAAAPSVFLFPPKPKDTLMISRTPEVTCVVVDVSHEDPEVQFNWYVDGVEVHNAKTKPREEQFNSTFRVVSVLTVVHQDWLNGKEYKCKVSNKGLPAPIEKTISKTKGQPREPQVYTLPPSREEMTKNQVSLTCLVKGFYPSDIAVEWESNGQPENNYKTTPPMLDSDGSFFLYSKLTVDKSRWQQGNVFSCSVMHEALHNHYTQKSLSLSPG
modifications: synthetic humanized antibody heavy chain variable region sequence; synthetic humanized antibody light chain variable region sequence; synthetic antibody constant region sequence
B9: 138 (antibody, V domains shown)
VH: B1 VH with V2I, E46K, D62Q, D63G, K65T
VL: B3 VL
modifications: synthetic humanized antibody heavy chain variable region sequence; synthetic humanized antibody light chain variable region sequence

Assays:
Test in all cases: Selectivity ELISA of humanized antibodies for human Eph receptor
Assay type in all cases: binding
SEAP-His = SEAP-His (Homo sapiens, UniProt P05187); conditions: coated protein 1 nM
Chain of SEAP-His (P05187 23-511 limits assumed): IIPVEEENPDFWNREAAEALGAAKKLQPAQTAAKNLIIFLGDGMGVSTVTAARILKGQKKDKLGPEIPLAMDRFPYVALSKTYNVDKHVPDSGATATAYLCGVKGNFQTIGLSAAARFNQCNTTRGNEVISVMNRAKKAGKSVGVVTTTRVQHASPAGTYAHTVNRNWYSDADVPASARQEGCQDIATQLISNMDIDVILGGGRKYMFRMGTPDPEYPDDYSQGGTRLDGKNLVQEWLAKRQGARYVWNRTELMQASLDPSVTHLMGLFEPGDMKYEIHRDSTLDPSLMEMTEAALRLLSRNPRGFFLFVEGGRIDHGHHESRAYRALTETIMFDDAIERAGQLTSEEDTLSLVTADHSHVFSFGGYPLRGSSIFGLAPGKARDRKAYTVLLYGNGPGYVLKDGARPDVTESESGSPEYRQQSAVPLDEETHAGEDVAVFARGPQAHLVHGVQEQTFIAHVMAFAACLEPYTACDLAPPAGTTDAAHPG
Method in brief: (§1)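 His-tagged SEAP fusions of each human Eph receptor extracellular region, from Expi293F supernatants, were captured at 1 nM on anti-His-coated wells. Humanized antibody was bound 1 h at room temperature, then detected with HRP […] IgG. TMB development was acid-stopped and read at 450 nm.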

human EphA2 = target: T3, human EphA2 (Homo sapiens, UniProt P29317); conditions: coated protein 1 nM
T3 construct: a protein of the extracellular region of each human Eph receptor fused with the SEAP protein and the His tag; made in house; host or cells: Expi293F cells (culture supernatant)
T3 sequence (P29317 24-537 limits assumed): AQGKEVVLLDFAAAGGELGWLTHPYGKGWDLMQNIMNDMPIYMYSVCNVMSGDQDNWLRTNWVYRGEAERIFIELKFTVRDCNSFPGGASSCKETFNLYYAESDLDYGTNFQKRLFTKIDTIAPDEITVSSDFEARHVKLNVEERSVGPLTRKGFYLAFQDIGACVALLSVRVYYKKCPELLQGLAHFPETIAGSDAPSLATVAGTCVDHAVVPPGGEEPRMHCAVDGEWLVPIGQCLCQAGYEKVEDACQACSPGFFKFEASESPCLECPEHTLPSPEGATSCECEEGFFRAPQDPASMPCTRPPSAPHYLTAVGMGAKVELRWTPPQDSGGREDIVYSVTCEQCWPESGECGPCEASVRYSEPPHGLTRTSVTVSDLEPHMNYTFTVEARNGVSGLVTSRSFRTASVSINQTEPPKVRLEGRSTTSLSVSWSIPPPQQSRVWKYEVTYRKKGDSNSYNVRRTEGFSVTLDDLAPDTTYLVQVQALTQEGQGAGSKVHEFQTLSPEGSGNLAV
Method in brief: as §1

human EphA4 = target: T4, human EphA4 (Homo sapiens, UniProt P54764); conditions: coated protein 1 nM; reference set to 100%
T4 construct: made in house; not restated for the human SEAP-His protein
T4 sequence (P54764 20-547): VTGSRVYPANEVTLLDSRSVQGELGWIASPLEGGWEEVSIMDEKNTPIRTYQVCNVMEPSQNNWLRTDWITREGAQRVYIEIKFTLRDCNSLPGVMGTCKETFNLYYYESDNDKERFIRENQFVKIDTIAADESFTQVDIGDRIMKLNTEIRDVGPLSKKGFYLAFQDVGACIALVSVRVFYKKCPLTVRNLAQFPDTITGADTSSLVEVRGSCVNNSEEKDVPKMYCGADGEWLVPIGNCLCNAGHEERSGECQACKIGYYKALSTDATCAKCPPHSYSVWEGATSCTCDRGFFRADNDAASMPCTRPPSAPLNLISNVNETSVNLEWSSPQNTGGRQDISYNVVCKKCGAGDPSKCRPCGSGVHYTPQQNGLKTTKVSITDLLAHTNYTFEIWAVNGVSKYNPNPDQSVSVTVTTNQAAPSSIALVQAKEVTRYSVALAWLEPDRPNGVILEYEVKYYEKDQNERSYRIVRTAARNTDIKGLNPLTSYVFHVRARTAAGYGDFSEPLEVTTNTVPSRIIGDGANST
Method in brief: as §1

human EphA5 = target: T5, human EphA5 (Homo sapiens, UniProt P54756); conditions: coated protein 1 nM
T5 construct: a protein of the extracellular region of each human Eph receptor fused with the SEAP protein and the His tag; made in house; host or cells: Expi293F cells (culture supernatant)
T5 sequence (P54756 25-573 limits assumed): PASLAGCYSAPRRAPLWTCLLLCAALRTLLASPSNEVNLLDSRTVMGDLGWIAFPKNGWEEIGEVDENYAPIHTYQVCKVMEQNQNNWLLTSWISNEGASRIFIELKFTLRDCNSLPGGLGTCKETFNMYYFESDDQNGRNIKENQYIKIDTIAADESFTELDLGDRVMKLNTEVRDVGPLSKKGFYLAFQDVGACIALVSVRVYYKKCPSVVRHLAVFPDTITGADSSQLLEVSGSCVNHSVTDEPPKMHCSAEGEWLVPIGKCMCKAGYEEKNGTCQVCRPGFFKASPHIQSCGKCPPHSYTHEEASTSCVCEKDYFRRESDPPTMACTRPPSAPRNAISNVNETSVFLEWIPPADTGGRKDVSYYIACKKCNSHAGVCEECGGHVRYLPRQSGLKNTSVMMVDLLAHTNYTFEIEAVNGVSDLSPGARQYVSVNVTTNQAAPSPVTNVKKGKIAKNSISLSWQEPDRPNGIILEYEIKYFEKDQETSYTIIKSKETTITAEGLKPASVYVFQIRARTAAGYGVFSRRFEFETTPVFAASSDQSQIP
Method in brief: as §1

human EphA8 = target: T1, human EphA8; conditions: coated protein 1 nM
Method in brief: as §1

human EphB1 = target: T2, human EphB1; conditions: coated protein 1 nM
Method in brief: as §1

Molecule	SEAP-His: absorbance at 450 nm, percentage with respect to hEphA4-SEAP-His as 100% (SEAP-His)	hEphA2-SEAP-: absorbance at 450 nm, percentage with respect to hEphA4-SEAP-His as 100% (human EphA2)	hEphA4-SEAP-: absorbance at 450 nm, percentage with respect to hEphA4-SEAP-His as 100% (human EphA4)	hEphA5-SEAP-: absorbance at 450 nm, percentage with respect to hEphA4-SEAP-His as 100% (human EphA5)	hEphA8-SEAP-: absorbance at 450 nm, percentage with respect to hEphA4-SEAP-His as 100% (human EphA8)	hEphB1-SEAP-: absorbance at 450 nm, percentage with respect to hEphA4-SEAP-His as 100% (human EphB1)
B1	4.4%	4.2%	100%	4.6%	4.4%	4.6%
B2	5.8%	5.7%	100%	6.0%	5.8%	5.7%
B3	6.3%	5.7%	100%	6.1%	6.0%	5.9%
B4	5.4%	5.3%	100%	5.4%	5.4%	5.3%
B5	5.8%	5.6%	100%	5.7%	5.7%	5.6%
B6	5.5%	5.3%	100%	6.0%	5.4%	5.6%
B7	5.0%	5.2%	100%	5.3%	5.5%	5.4%
B8	5.7%	5.9%	100%	5.7%	6.0%	5.5%
B9	5.1%	5.0%	100%	5.1%	5.4%	5.1%
